Measurements: paper PMC5134833, “The amyloid-beta forming tripeptide cleavage mechanism of γ-secretase” (eLife, 2016)

Target: T1, γ-secretase (Homo sapiens, UniProt P49768)
T1 construct: made in house; host or cells: suspension HEK cells (Freestyle 293), transiently transfected
Experiment: In vitro γ-secretase assay (purified γ-secretase in proteoliposomes cleaving recombinant C100-FLAG substrate)
Format: biochemical
Settings: C100-FLAG 500 nM, Figure 1B, 1F
Protocol: Purified γ-secretase was incorporated into vesicles by first dissolving total brain lipid extract (1.25 mM final) in 50 mM HEPES pH 7.0, 150 mM NaCl, 0.25% CHAPSO. γ-Secretase (5–30 nM final concentration) was then added to the solution and detergent removed by mixing SM-2 biobeads (62 mg/mL) (Bio-Rad) with the lipid/detergent/enzyme solution for two hrs at 4°C. Biobeads were removed from the newly formed proteoliposomes and reactions were initiated with the addition of purified recombinant substrate C100-FLAG substrate. Reactions were quenched with SDS loading dye for western blot or centrifuged for ELISA or mass spectrometry on Aβ or AICD fragments, respectively.
For inhibition studies, tripeptide fragments or inhibitors were dissolved in DMSO prior to being diluted into the reaction buffer. The concentration of C100-FLAG used in all in vitro assays was 500 nM unless otherwise stated.
Tripeptide IC50 inhibition was fit to: vi/vo=1/(1+[I]/IC50)
Tripeptide inhibition was globally fit to the following noncompetitive equation: v= Vmax[S]/[S](1+[I]/Kii)+Km(1+[I]/Ki)
Inhibitor cross-competition was globally fit to: 1/vij=1/v0(1+[I]/Ki+[J]/Kj+[I][J]/αKiKj)

Row | Substance | inhibition of γ-secretase activity (relative potency in words)
1 | AFA: synthetic tripeptide predicted to clash with the S' pocket binding site | very weak inhibitor
2 | FAF: synthetic tripeptide of the predicted optimal binding sequence for the large-small-large S1'-S2'-S3' pockets | more potent inhibitor of γ-secretase activity than any of the naturally occurring APP-derived tripeptides
